Legend:
[1] = Oral administration of Compound 3 and Compound 101 to rats, hydromorphone in plasma; format: in vivo, rat; settings: Compound 3 20 mg/kg, Compound 101 10 mg/kg
Experimental: Saline solutions of Compound 3 (which can be prepared as described in Example 12) and Compound 101 (prepared as described in Example 14) were dosed as indicated in Table 8.

[2] = Oral administration of Compound 4 and Compound 101 to rats, hydromorphone in plasma; format: in vivo, rat; settings: Compound 4 20 mg/kg, Compound 101 10 mg/kg
Experimental: Saline solutions of Compound 4 (which can be prepared as described in Example 13) and Compound 101 (prepared as described in Example 14) were dosed as indicated in Table 9.

[3] = Oral administration of Compound 1 and SBTI to rats, hydromorphone in blood; format: in vivo, rat
Experimental: At specified time points, blood samples were drawn, quenched into methanol, centrifuged at 14,000 rpm @ 4° C., and stored at −80° C. until analysis by high performance liquid chromatography/mass spectrometry (HPLC/MS).

[4] = Oral administration of Compound 1 and SBTI in the presence of ovalbumin to rats, hydromorphone in plasma; format: in vivo, rat; settings: Compound 1 20 mg/kg
Experimental: In an effort to understand the role of SBTI, ovalbumin was used as a non-trypsin inhibitor protein control. Albumin from chicken egg white (ovalbumin) (Catalog No. A7641, Grade VII, lyophilized powder, Sigma-Aldrich) was dissolved in saline.
At specified time points, blood samples were drawn, harvested for plasma via centrifugation at 5,400 rpm at 4° C. for 5 min, and 100 microliters (μl) plasma transferred from each sample into a fresh tube containing 1 μl of formic acid. The tubes were vortexed for 5-10 seconds, immediately placed in dry ice and then stored until analysis by HPLC/MS.

[5] = Oral administration of Compound 2 and SBTI to rats, hydromorphone in plasma; format: in vivo, rat; settings: Compound 2 20 mg/kg, SBTI 500 mg/kg
Experimental: When SBTI was dosed, it was administered 5 min prior to Compound 4. At specified time points, blood samples were drawn, processed and analyzed as described in Example 2.

[6] = Oral administration of Compound 3 and SBTI to rats, hydromorphone in plasma; format: in vivo, rat; settings: Compound 3 20 mg/kg, SBTI 500 mg/kg
Excerpt: Dosing, sampling and analysis procedures were as described in Example 4.

[7] = Oral administration of Compound 4 and SBTI to rats, hydromorphone in plasma; format: in vivo, rat; settings: Compound 4 20 mg/kg, SBTI 500 mg/kg
Experimental: Dosing, sampling and analysis procedures were as described in Example 4, except that Compound 4 without inhibitor was administered to 7 rats.

trypsin = biological target: T1, trypsin (Bos taurus, UniProt P00760); assay: Modified trypsin assay (in vitro IC50); format: biochemical; settings: trypsin inhibition
T1 sequence (P00760 24-246): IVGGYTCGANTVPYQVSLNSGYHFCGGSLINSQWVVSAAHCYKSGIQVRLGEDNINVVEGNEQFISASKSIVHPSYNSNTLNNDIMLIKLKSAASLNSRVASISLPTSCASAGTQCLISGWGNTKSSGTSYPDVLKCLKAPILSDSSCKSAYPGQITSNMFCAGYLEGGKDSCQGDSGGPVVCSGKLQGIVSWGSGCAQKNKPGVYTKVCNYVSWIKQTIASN

CCOC(=O)N1CCN(C(=O)[C@H](CCCNC(=N)N)NS(=O)(=O)c2ccc3ccccc3c2)CC1 [Compound 101, (S)-ethyl 4-(5-guanidino-2-(naphthalene-2-sulfonamido)pentanoyl)piperazine-1-carboxylate]
Effect of Compound 101 on Compound 3's release of hydromorphone [1]: attenuates Compound 3's ability to release hydromorphone, both with respect to suppressing Cmax and delaying Tmax | Effect of Compound 101 on Compound 4's release of hydromorphone [2]: attenuates Compound 4's ability to release hydromorphone, both with respect to suppressing Cmax and delaying Tmax

B1: SBTI: trypsin inhibitor from Glycine max (soybean), Catalog No. 93620, ~10,000 units per mg, Sigma-Aldrich (protein, UniProt P01070 25-205, looked up)
Trypsin inhibitor A: DFVLDNEGNPLENGGTYYILSDITAFGGIRAAPTGNERCPLTVVQSRNELDKGIGTIISSPYRIRFIAEGHPLSLKFDSFAVIMLCVGIPTEWSVVEDLPEGPAVKIGENKDAMDGWFRLERVSDDEFNNYKLVFCPQQAEDDKCGDIGISIDHDDGTRRLVVSKNKPLVVQFQKLDKESL
Effect of SBTI on Compound 1's release of hydromorphone ([3]; Compound 1 20 mg/kg, SBTI 10-1000 mg/kg): attenuates Compound 1's ability to release hydromorphone in a dose-dependent manner | Attenuation of hydromorphone release from Compound 1 ([3]; at higher SBTI concentrations): approximately 100% | Effect of SBTI on Compound 1's release of hydromorphone ([4]; SBTI 500 mg/kg in the presence of 500 mg/kg ovalbumin): suppresses Cmax and delays Tmax | Effect of SBTI on Compound 2's release of hydromorphone [5]: attenuates Compound 2's ability to release hydromorphone, both with respect to suppressing Cmax and delaying Tmax | Effect of SBTI on Compound 3's release of hydromorphone [6]: attenuates Compound 3's ability to release hydromorphone, both with respect to suppressing Cmax and delaying Tmax | Effect of SBTI on Compound 4's release of hydromorphone [7]: attenuates Compound 4's ability to release hydromorphone, at least with respect to delaying Tmax | IC50 (trypsin): 270 nM

B2: ovalbumin: Albumin from chicken egg white, Catalog No. A7641, Grade VII, Sigma-Aldrich; non-trypsin inhibitor protein control (protein, UniProt P01012 2-386, looked up)
Ovalbumin: GSIGAASMEFCFDVFKELKVHHANENIFYCPIAIMSALAMVYLGAKDSTRTQINKVVRFDKLPGFGDSIEAQCGTSVNVHSSLRDILNQITKPNDVYSFSLASRLYAEERYPILPEYLQCVKELYRGGLEPINFQTAADQARELINSWVESQTNGIIRNVLQPSSVDSQTAMVLVNAIVFKGLWEKAFKDEDTQAMPFRVTEQESKPVQMMYQIGLFRVASMASEKMKILELPFASGTMSMLVLLPDEVSGLEQLESIINFEKLTEWTSSNVMEERKIKVYLPRMKMEEKYNLTSVLMAMGITDVFSSSANLSGISSAESLKISQAVHAAHAEINEAGREVVGSAEAGVDAASVSEEFRADHPFLFCIKHIATNAVLFFGRCVSP
Effect of ovalbumin on Compound 1's release of hydromorphone ([4]; OVA 20-1000 mg/kg): does not significantly affect Compound 1's ability to release hydromorphone
